Experimental data: the nanobody polyreactivity screen of Harvey et al. (2022)

Experiment: yeast display, Sf9 membrane polyspecificity reagent, FACS + sequencing; frameworks hold sequencing errors
Procedure, shortened: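 Genes from sorted yeast were amplified by colony PCR, read by MiSeq 2 × 250 sequencing and filtered on CDR length. These cells carried a synthetic nanobody library in Saccharomyces cerevisiae BJ5465 and were sorted by FACS into low and high (top ~1%) gates on anti-HA and streptavidin fluorescence. Polyreactivity is labelled according to the gate of origin.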

| Sequence | polyreactivity (PSR sort gate) |
| --- | --- |
| QVQLVESGGGLVQAGGSLRLSCAASGNTFVTNDMGWYRQAPRKERELVADISWGGASTYYADSVKGRFTISRDNAKNTVYLQMNSLIPEDTAVYYCYATDDITYTYSYDYWGQGTQVTVSS | low polyreactivity |
| QVQLVESGGGLVQAGGSLRLSCAASGNTFWFYGMGWYRQAPGKERELVAAITSGGSTDYADSVKWRFTISRDNAKNTVYLQMNSLKPEDTAVYYCAAEPVAYYGSSYGYWGQGTQVTVSS | low polyreactivity |
| QVQLVESGGGLVQAGGSLRLSCAASGNTFWSYAMGWYRQAPGKERELVAAISFSGGSTNYADSVKGRFTISRDNAKNTVYLQMNSLKPEDTAVYYCAAYFYAPLTYYSWYDYWGQGTQVTVSS | high polyreactivity |
| QVQLVESGGGLVQAGGSLRLSCAASGNTFWSYAMGWYRQAPGNERELVAAITQRGGSTYYADSVKGRFTISRDNAKNTVYLQMNSLKPEDTAVYYCAADTSYKGDYWGQGTQVTVSS | high polyreactivity |
| QVQLVESGGGLVQAGGSLRLSCAASGNTFWYNAMGWYRQSPGKERELVAAISYSGGGTYYADSVKGRFTISRDNAKNTVYLQMNSLKPEDTAVYYCAADTLQRAFVLNDYWGQGTQVTVSS | low polyreactivity |
| QVQLVESGGGLVQAGGSLRLSCAASGNTFYAYAMGWYRQAPGKERELVAAIARGGNTYYADSVKGRFTISRDNAKNTVYLQMNSLKPEDTAVYYCNAYYPIRSSPYGYYYWGQGTQVTVSS | high polyreactivity |
| QVQLVESGGGLVQAGGSLRLSCAASGNTFYAYTMGLYIQAPGKERELVAAISSDGSTNYADSVKGRFTISRDNAKNTVYLQMNSLKPEDTAVYYCAVTLEVSTVRDYDYWGQGTQVTVSS | low polyreactivity |
| QVQLVESGGGLVQAGGSLRLSCAASGNTFYGYAMGWYRQAPGKERELVASITLSGDSTYYSDSVKGRFTISRDNAKNTVYLQMNSLKPEDTAGYYCAFDGYWYGGIFYYGGQGTQVTVSS | low polyreactivity |
| QVQLVESGGGLVQAGGSLRLSCAASGNTFYINAMGWYRQAPGKERELVAAINYSGDSTYADSVKGRFTITRDNAKNTFYLQMNSLKPEDTAVYYCAADTGWYDDWTHDYWGHGTQVTVSS | low polyreactivity |
| QVQLVESGGGLVQAGGSLRLSCAASGNTFYIYAMGWYRQAPGKERELVAAISRGGGSTYYAESVKGRFTISRDNAMNTVYLQLNSLKPEDTAVYYCAADYYYSRYDYWGQGTQVTVSS | high polyreactivity |
| QVQLVESGGGLVQAGGSLRLSCAASGNTFYKYAMRWYRQAPGKERELVADISWSGGSTYYADSVKGRFTISRDNAKNTVYLQMNSLKPEDTAVYYCNADTPVWDGHAYPVDYWGQGTQVTVSS | low polyreactivity |
| QVQLVESGGGLVQAGGSLRLSCAASGNTFYLYAMGWYRKAPGKERELVASITGGTRTNYADSVKGRFTISRDNAKNTVYLQMNSLKPEDTAVYYCAVRYYWRRMNYWGQGTQVTVSS | high polyreactivity |
| QVQLVESGGGLVQAGGSLRLSCAASGNTFYNVYAMGWYRQATGKERELVAAITARGSTYADSVKGRFTISRDNAKNTVYLQMNSLKPEDNAVYYGATRSSWLYRGLYYNGFNYWGQGTQVTVSS | high polyreactivity |
| QVQLVESGGGLVQAGGSLRLSCAASGNTFYPKDMGWYRQAPGKERELVAAITTNDGDTYYADSVKGRFTISRDNAKNTVYLQMNRLKPEDTAVYYCAADSGSTSEYEYWGQGTQVTVSS | low polyreactivity |
| QVQLVESGGGLVQAGGSLRLSCAASGNTFYPYAMGWYRQAPGKERELVAAITSSGGSTYYADSVNGRFTISRDNAKNTVYLQMNSLKPEDTAVYYCAAYIYFLGMDYWGQGTQVTVSS | low polyreactivity |
| QVQLVESGGGLVQAGGSLRLSCAASGNTFYRNAMGWYRQAPGKERELVAAITFSTGRTYYADSVKGRFTISRDNAKNTVYLQLNSLKPEDTAVYYCAAFYSGGDYWGQCTQVTVSS | high polyreactivity |
| QVQLVESGGGLVQAGGSLRLSCAASGNTFYYAMGWYTQAPGKERELVASIRTGGSTNYADSVKGRFTISRDNAKNTVYLQMNSLKPEDTAVYYCNRDGTYSHTGWDYWRPYEYWGQGTQVTVSS | low polyreactivity |
| QVQLVESGGGLVQAGGSLRLSCAASGNTIFAYVMGWYRQAAGKEREFVAAISRRDGRTYYADSVKGRFTISRDNAKNTVYLQMNSLKPEDTAVYYCNAQRHFWHLYAPSSFDYWGQGTQVTVSS | low polyreactivity |
| QVQLVESGGGLVQAGGSLRLSCAASGNTINFYAMGWYRQAPGKEREMVAAISSGGSTNYADSVKGRFTISRDNAKNTVYLQMNSLKPEDSAVYYCAKDVWYLVYYHWKSNRVWQYDYWGQGTQVTVSS | low polyreactivity |
| QVQLVESGGGLVQAGGSLRLSCAASGNTIVTNTMGWYRQAPGKERELVAAIDSGGDTYYADSVKGRFTISRDNAKNTVYLQMNSLKPEDTAVYYCAAVGDPNYFSNRRYEYWGQGTQVTVSS | low polyreactivity |
| QVQLVESGGGLVQAGGSLRLSCAASGNTLPQNAMGWYRQAPGKERELVAAISRSGGSTYYADSVKGRFTISRDNAKNTVYLQMNSLKPEDTAVYYCAAKLTVSGYRYGYWGQGTQVTVSS | high polyreactivity |
| QVQLVESGGGLVQAGGSLRLSCAASGNTLRTYGMGWYRQAPGKEREFVAAITYSGGSTYYADSVKGRFTISRDNAKNTVYLQMNSLKPEDTAVYYCAARYRSHYRRITPYDSWGQGTQVTVSS | high polyreactivity |

| Sequence | polyreactivity (PSR sort gate) |
| --- | --- |
| QVQLVESGGGLVQAGGSLRLSCAASGNTLSYYTMGWYRQAPGKERELVAAISRGGGSTYYADSVKGRFTISRDNSMNTVYLHMNSLKPEDTAVYYCAAEAYRYAWYDYWGQGTQVTVSS | high polyreactivity |
| QVQLVESGGGLVQAGGSLRLSCAASGNTLYQYAMGWYRQAPGKERELVAAISGIGDSTYYADSVKGRFTISRDNAKNTVYLQMNSLKPEDTAVYYCAADGEYRYDLEYESWGQGTQVTVSS | low polyreactivity |
| QVQLVESGGGLVQAGGSLRLSCAASGNTLYSYAMGWYRQAPGKERELVAAITKSGGRTYYADSVKGRFTISRDNAKNTVYLQMNSLKPEDTADYYCNAVFLPTYHFDYWGQGTQVTVSS | high polyreactivity |
| QVQLVESGGGLVQAGGSLRLSCAASGNTSAVYAMGWYRQAPGKERELVASITWSDGITYYADSVKGRFTISRDNAKNTVYLQMNSLKPEDTAVYYCAKSTLYSVEYDYWGEGTQVTVSS | low polyreactivity |
| QVQLVESGGGLVQAGGSLRLSCAASGNTVKGYAMGWYRQAPGKERELVAAISWSGSSTYYADSVKGRFTISRDNAKNTVYLQMNSLKPEDTAVYYCNRKYLGRYASVYGYGYWGQGTQVTVSS | high polyreactivity |
| QVQLVESGGGLVQAGGSLRLSCAASGPMFTSNAMGWYRQAPGKERELVAAISRRGTRTYYADSVKGRFTISRDNAKNTVYLQMNSLKPEDTAVYYCAATTGEQEDYWGQGTQVTVSS | high polyreactivity |
| QVQLVESGGGLVQAGGSLRLSCAASGPTFDVYAMGWYRQAPGKERELVATISWRGTSTYYADSVKGRFTISRDNAKNTVYLQMNSLKPEDTAVYYCAAEVYYEYYYWRYYWGQGTQVTVSS | high polyreactivity |
| QVQLVESGGGLVQAGGSLRLSCAASGPTFGVNAMGWYRQAPGKERELVAVISSTGSTNYADSVKGRFTISRDNAKNTVYLQMNSLKPEDTAVYYCAVGPNSVGNRSYGFDYWGQGTQVTVSS | low polyreactivity |
| QVQLVESGGGLVQAGGSLRLSCAASGPTFYKYAMGWYRQAPGKEREFVATITRRGGSTYYADSVKGRFTISRDNAKNTVYLQMNSLNPEDTAVYYCAKEIFLKGPDGHDYWGQGTQVTVSS | low polyreactivity |
| QVQLVESGGGLVQAGGSLRLSCAASGPTFYYYDMGLYRPAPGKERELVAAISATGGRTYYADSVKGRFTISRDNAKNTVYLQMNSLKPEDTAVYYCAAETPYLRRRLGMDYWGQGTQVTVSS | high polyreactivity |
| QVQLVESGGGLVQAGGSLRLSCAASGRFFVPYFIGSYRQAPGTERELVASISDSDTSTYYADSVKGRFTISRDNAKNTVYLQMNSLKPEDTAVYYCNVDYWGQGTQVTLSS | low polyreactivity |
| QVQLVESGGGLVQAGGSLRLSCAASGRIFADYAMGWNRHAPGKQRELVAAITWSGDRTYYADSVKGRFTISRDNAKNTVYLQMNSLKPEDTAVYYCAARARLRRYNYWGQGTQVTVSS | high polyreactivity |
| QVQLVESGGGLVQAGGSLRLSCAASGRIFAFNVMGWYRQAPGKEREMVAAISTRDGSTYYADSVKGRFTISRDNAKNTVYLQMNSLIPEDTAVYYCNAVVRYYDWGYWDYDYWGQGTQVTVSS | low polyreactivity |
| QVQLVESGGGLVQAGGSLRLSCAASGRIFAFYAMGWSRPAPGKERELVAAITSGGSTKYADSVKGRFTISRDNAKNTVYLQMNSLKPEDTAVYYCAAQYRYQRYSYAMEYWGQCTQVTVSS | high polyreactivity |
| QVQLVESGGGLVQAGGSLRLSCAASGRIFAFYAMGWYRQAPGKERELVAAITWSGGSTYYADSVKGRFTISRDNAKNTVYLQMNSLKPEDTAVYYCAARYRHYFVRGGYWGQGTQVTVSS | high polyreactivity |
| QVQLVESGGGLVQAGGSLRLSCAASGRIFAFYARGWYRQAPGKERELVAAITSGGSTKYADSVKGRFTISRDNAKNTVYLQMNSLKPEDTAVYYCAAQYRYQRYSYAMEYWGQGTQVTVSS | high polyreactivity |
| QVQLVESGGGLVQAGGSLRLSCAASGRIFAGYAMGWYRQAPGKERELVAAISNARRTNYADSVKGRFTISRDNAKNNVYLHMNSLKPEDTAVYYCAASRYGRKFSLYDYYYWGQGTQVTVSS | high polyreactivity |
| QVQLVESGGGLVQAGGSLRLSCAASGRIFAGYAMGWYRQAPGKERELVAAITTGGSTHYADSVKGRFTISRDNAKNTVYLQMNSLKPEDTAVYYCNAKVEFWESWGWLLDDDYWGQGTQVTVSS | low polyreactivity |
| QVQLVESGGGLVQAGGSLRLSCAASGRIFAHYTMGWYRQAPGKERELVAAISIRGGRTNYTDSVKGRFTISRDNAKNTVYLQMNSLKPEDTAVYYCNARGARYYWYQLGHDYWGQGTQVTVSS | high polyreactivity |
| QVQLVESGGGLVQAGGSLRLSCAASGRIFAKYAMGWYRQAPGKERELVAAISWGGGSTYYADSVKGRFTISRDNAKNTVYLQMNSLKPEDTAVYYCARRFKYGSTAWRFYYWGQGTQVTVSS | high polyreactivity |
| QVQLVESGGGLVQAGGSLRLSCAASGRIFALYAMGWYRQAPGKERELVAAITWRGGRTRYADSVKGRFTISRDNAKNTVYLQMNSLKPEDTAVYYCNKRLFASRYDYWGQGTQVTVSS | high polyreactivity |
